In assay [1] the target is human GLP-1 receptor (human) (UniProt P43220). Kind of assay: cell-based or functional assay.
Assay [2] concerns the target human insulin receptor β (human) (UniProt P06213). Briefly: cell-based or functional assay.
Assay [3] deals with mouse-derived 3T3-L1 cell line differentiated into adipocytes. Kind of assay: Glucose uptake test in 3T3-L1 cells differentiated into adipocytes (GOPOD residual glucose). Particulars: 3T3-L1 adipocytes, 24 hours; read-out: Glucose uptake (Insulin) EC50. The assay is classed as cell-based. On the procedure: First, for analyzing the titer of insulin, a glucose uptake (or lipid synthesis ability) test was conducted using the mouse-derived 3T3-L1 cell line differentiated into adipocytes. […] The 3T3-L1 cell line was suspended in the medium for differentiation (DMEM containing 10% FBS), inoculated into a 48-well plate to a concentration of 5×10^4 cells/well, and cultured at 37° C. for 48 hours. […] The mixtures was added to each well in an amount of 250 μL/well after removing the existing medium.
For the glucose uptake test, the cells terminally differentiated into adipocytes were washed once with serum-free DMEM medium and serum-free DMEM medium was added into each well in an amount of 250 μL to induce serum depletion for 4 hours. […] Each of the thus-prepared samples was added to the cells in an amount of 250 μL, respectively, and cultured in a 5% CO2 incubator at 37° C. for 24 hours. For the measurement of the residual amount of glucose in the medium upon completion of cultivation, 200 μL of the medium was collected, diluted 5-fold with D-PBS, respectively, and subjected to GOPOD analysis (GOPOD Assay Kit, Megazyme, Cat. No. K-GLUC). The residual glucose concentration in the medium was calculated based on the absorbance of the standard glucose solution, and EC50 values for each of the samples with respect to glucose uptake ability was calculated and the result is shown in Table 9 below.

We go through two substances from patent US20180271995A1, “A PROTEIN CONJUGATE COMPRISING MULTIPLE PHYSIOLOGICALLY ACTIVE POLYPEPTIDES AND AN IMMUNOGLOBULIN FC REGION” (HANMI PHARM. CO., LTD., priority 2015, published 2018).

Values joined by “and” are separate entries in the source; they are usually repeats but may differ in a detail not shown here. Equal values may be shown once. Some results are limits rather than exact numbers.

As to Immunoglobulin Fc, the cAMP assay EC50 in assay [1] was above 0.1 µM. Moreover, the IR-β phosphorylation EC50 in assay [2] is above 1 µM. Turning to human insulin, the EC50 – broadly, the concentration that produces a half-maximal response – in assay [3] is 0.009 µM and 0.011 µM.
